Source: the supplement of paper PMC9112550, “Optimization of the antimicrobial peptide Bac7 by deep mutational scanning” (BMC Biology, 2022)

test system: Escherichia coli TOP10; experiment: shrunken log2 fold change of peptide-encoding DNA abundance (4.5 h post-induction vs induction); higher = less antimicrobial activity (less host growth inhibition); details: time post-induction: 4.5 h; library: site-saturation at positions 5, 18, 19, 20
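Note: peptides expressed intracellularly from a pBAD plasmid library in pooled LB shake-flask culture, induced with 0.3% L-arabinose, DNA abundance read by NGS, three biological replicates, DESeq2 with apeglm shrinkage.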

Row | Sequence | shrunken log2 fold change
1 | RRIRLRPPRLPRPRPRPIPKPRP | -0.0415
2 | RRIRLRPPRLPRPRPRPIQIPRP | 0.03
3 | RRIRLRPPRLPRPRPRPIQVPRP | -0.072
4 | RRIRLRPPRLPRPRPRPIQWPRP | 0.146
5 | RRIRLRPPRLPRPRPRPIRPPRP | -0.113
6 | RRIRLRPPRLPRPRPRPISHPRP | -0.137
7 | RRIRLRPPRLPRPRPRPISKPRP | -0.125
8 | RRIRLRPPRLPRPRPRPIVFPRP | -0.0377
9 | RRIRLRPPRLPRPRPRPIWCPRP | -0.0514
10 | RRIRLRPPRLPRPRPRPIWEPRP | 0.0805
11 | RRIRLRPPRLPRPRPRPIWFPRP | 0.0419
12 | RRIRLRPPRLPRPRPRPIWQPRP | 0.0488
13 | RRIRLRPPRLPRPRPRPIYGPRP | 0.0275
14 | RRIRLRPPRLPRPRPRPIYTPRP | -0.377
15 | RRIRLRPPRLPRPRPRPKADPRP | -0.051
16 | RRIRLRPPRLPRPRPRPKATPRP | -0.116
17 | RRIRLRPPRLPRPRPRPKCTPRP | 0.0446
18 | RRIRLRPPRLPRPRPRPKDYPRP | -0.0534
19 | RRIRLRPPRLPRPRPRPKGCPRP | -0.0474
20 | RRIRLRPPRLPRPRPRPKGTPRP | 0.0017
21 | RRIRLRPPRLPRPRPRPKICPRP | 0.0221
22 | RRIRLRPPRLPRPRPRPKIDPRP | -0.042
23 | RRIRLRPPRLPRPRPRPKIHPRP | -0.312
24 | RRIRLRPPRLPRPRPRPKIIPRP | -0.69
25 | RRIRLRPPRLPRPRPRPKKEPRP | -0.0307

Row | Sequence | shrunken log2 fold change
26 | RRIRLRPPRLPRPRPRPKLFPRP | 0.306
27 | RRIRLRPPRLPRPRPRPKLPPRP | 0.492
28 | RRIRLRPPRLPRPRPRPKMEPRP | -0.0157
29 | RRIRLRPPRLPRPRPRPKMKPRP | -0.476
30 | RRIRLRPPRLPRPRPRPKNCPRP | -0.5
31 | RRIRLRPPRLPRPRPRPKNSPRP | -0.27
32 | RRIRLRPPRLPRPRPRPKPCPRP | -0.158
33 | RRIRLRPPRLPRPRPRPKPKPRP | 0.607
34 | RRIRLRPPRLPRPRPRPKQGPRP | -0.0685
35 | RRIRLRPPRLPRPRPRPKRNPRP | 0.225
36 | RRIRLRPPRLPRPRPRPKRPPRP | -0.0353
37 | RRIRLRPPRLPRPRPRPKSCPRP | 0.0755
38 | RRIRLRPPRLPRPRPRPKSSPRP | 0.0397
39 | RRIRLRPPRLPRPRPRPKTRPRP | 0.226
40 | RRIRLRPPRLPRPRPRPKVHPRP | -0.106
41 | RRIRLRPPRLPRPRPRPKWQPRP | -0.0304
42 | RRIRLRPPRLPRPRPRPLATPRP | 0.38
43 | RRIRLRPPRLPRPRPRPLCCPRP | -0.146
44 | RRIRLRPPRLPRPRPRPLCSPRP | -0.223
45 | RRIRLRPPRLPRPRPRPLDFPRP | -0.162
46 | RRIRLRPPRLPRPRPRPLDSPRP | 0.0522
47 | RRIRLRPPRLPRPRPRPLDYPRP | -0.157
48 | RRIRLRPPRLPRPRPRPLELPRP | -0.0406
49 | RRIRLRPPRLPRPRPRPLEMPRP | 0.203
50 | RRIRLRPPRLPRPRPRPLETPRP | -0.0757

Row | Sequence | shrunken log2 fold change
51 | RRIRLRPPRLPRPRPRPLFCPRP | -0.142
52 | RRIRLRPPRLPRPRPRPLFIPRP | -0.539
53 | RRIRLRPPRLPRPRPRPLGTPRP | 0.18
54 | RRIRLRPPRLPRPRPRPLHTPRP | -0.289
55 | RRIRLRPPRLPRPRPRPLKKPRP | 0.162
56 | RRIRLRPPRLPRPRPRPLLPPRP | 0.368
57 | RRIRLRPPRLPRPRPRPLLQPRP | 0.138
58 | RRIRLRPPRLPRPRPRPLMQPRP | -0.0571
59 | RRIRLRPPRLPRPRPRPLNNPRP | -0.593
60 | RRIRLRPPRLPRPRPRPLPCPRP | 0.142
61 | RRIRLRPPRLPRPRPRPLPLPRP | 0.338
62 | RRIRLRPPRLPRPRPRPLRLPRP | 0.417
63 | RRIRLRPPRLPRPRPRPLRWPRP | 0.524
64 | RRIRLRPPRLPRPRPRPLRYPRP | -0.0797
65 | RRIRLRPPRLPRPRPRPLSEPRP | 0.0386
66 | RRIRLRPPRLPRPRPRPLSGPRP | 0.15
67 | RRIRLRPPRLPRPRPRPLTAPRP | -0.0325
68 | RRIRLRPPRLPRPRPRPLTKPRP | -0.0425
69 | RRIRLRPPRLPRPRPRPLVVPRP | -0.113
70 | RRIRLRPPRLPRPRPRPLWMPRP | -0.00586
71 | RRIRLRPPRLPRPRPRPMAAPRP | 0.627
72 | RRIRLRPPRLPRPRPRPMAGPRP | 0.208
73 | RRIRLRPPRLPRPRPRPMAIPRP | 0.11
74 | RRIRLRPPRLPRPRPRPMCCPRP | -0.394
75 | RRIRLRPPRLPRPRPRPMDHPRP | -0.00264

Row | Sequence | shrunken log2 fold change
76 | RRIRLRPPRLPRPRPRPMDQPRP | -0.0503
77 | RRIRLRPPRLPRPRPRPMECPRP | -0.489
78 | RRIRLRPPRLPRPRPRPMEIPRP | -0.00427
79 | RRIRLRPPRLPRPRPRPMFVPRP | -0.354
80 | RRIRLRPPRLPRPRPRPMGHPRP | -0.0276
81 | RRIRLRPPRLPRPRPRPMGWPRP | 0.203
82 | RRIRLRPPRLPRPRPRPMKGPRP | 0.0527
83 | RRIRLRPPRLPRPRPRPMLDPRP | 0.014
84 | RRIRLRPPRLPRPRPRPMMHPRP | 0.0259
85 | RRIRLRPPRLPRPRPRPMNDPRP | -0.219
86 | RRIRLRPPRLPRPRPRPMNQPRP | -0.302
87 | RRIRLRPPRLPRPRPRPMNRPRP | -0.0112
88 | RRIRLRPPRLPRPRPRPMQAPRP | -0.0495
89 | RRIRLRPPRLPRPRPRPMQPPRP | 0.303
90 | RRIRLRPPRLPRPRPRPMQRPRP | 0.0784
91 | RRIRLRPPRLPRPRPRPMRFPRP | 0.0595
92 | RRIRLRPPRLPRPRPRPMRLPRP | 0.0402
93 | RRIRLRPPRLPRPRPRPMRQPRP | 0.181
94 | RRIRLRPPRLPRPRPRPMSIPRP | -0.159
95 | RRIRLRPPRLPRPRPRPMSRPRP | -0.00152
96 | RRIRLRPPRLPRPRPRPMVCPRP | -0.0634
97 | RRIRLRPPRLPRPRPRPMVQPRP | -0.147
98 | RRIRLRPPRLPRPRPRPMWLPRP | -0.0867
99 | RRIRLRPPRLPRPRPRPMWSPRP | -0.0258
100 | RRIRLRPPRLPRPRPRPMYFPRP | -0.252

Row | Sequence | shrunken log2 fold change
101 | RRIRLRPPRLPRPRPRPMYVPRP | -0.199
102 | RRIRLRPPRLPRPRPRPNACPRP | 0.127
103 | RRIRLRPPRLPRPRPRPNALPRP | -0.0646
104 | RRIRLRPPRLPRPRPRPNATPRP | 0.0161
105 | RRIRLRPPRLPRPRPRPNDDPRP | -0.248
106 | RRIRLRPPRLPRPRPRPNDPPRP | -0.213
107 | RRIRLRPPRLPRPRPRPNDTPRP | -0.302
108 | RRIRLRPPRLPRPRPRPNEAPRP | 0.278
109 | RRIRLRPPRLPRPRPRPNEMPRP | 0.0287
110 | RRIRLRPPRLPRPRPRPNEPPRP | -0.213
111 | RRIRLRPPRLPRPRPRPNERPRP | -0.0191
112 | RRIRLRPPRLPRPRPRPNHGPRP | -0.17
113 | RRIRLRPPRLPRPRPRPNHQPRP | -0.19
114 | RRIRLRPPRLPRPRPRPNINPRP | -0.686
115 | RRIRLRPPRLPRPRPRPNKFPRP | -0.206
116 | RRIRLRPPRLPRPRPRPNKLPRP | -0.307
117 | RRIRLRPPRLPRPRPRPNLEPRP | 0.0534
118 | RRIRLRPPRLPRPRPRPNLKPRP | -0.367
119 | RRIRLRPPRLPRPRPRPNMYPRP | -0.284
120 | RRIRLRPPRLPRPRPRPNNCPRP | -0.207
121 | RRIRLRPPRLPRPRPRPNNGPRP | 0.0736
122 | RRIRLRPPRLPRPRPRPNNTPRP | -0.687
123 | RRIRLRPPRLPRPRPRPNQCPRP | -0.206
124 | RRIRLRPPRLPRPRPRPNTVPRP | -0.0627
125 | RRIRLRPPRLPRPRPRPNVAPRP | 0.0405

Row | Sequence | shrunken log2 fold change
126 | RRIRLRPPRLPRPRPRPNVTPRP | -0.286
127 | RRIRLRPPRLPRPRPRPNWEPRP | -0.111
128 | RRIRLRPPRLPRPRPRPPAAPRP | 0.771
129 | RRIRLRPPRLPRPRPRPPADPRP | 0.797
130 | RRIRLRPPRLPRPRPRPPAWPRP | 0.98
131 | RRIRLRPPRLPRPRPRPPCDPRP | -0.29
132 | RRIRLRPPRLPRPRPRPPCNPRP | -0.126
133 | RRIRLRPPRLPRPRPRPPCVPRP | -0.0544
134 | RRIRLRPPRLPRPRPRPPEFPRP | 0.0526
135 | RRIRLRPPRLPRPRPRPPFEPRP | 0.182
136 | RRIRLRPPRLPRPRPRPPFGPRP | 0.0044
137 | RRIRLRPPRLPRPRPRPPHRPRP | 0.182
138 | RRIRLRPPRLPRPRPRPPIRPRP | 0.296
139 | RRIRLRPPRLPRPRPRPPLGPRP | 0.409
140 | RRIRLRPPRLPRPRPRPPMAPRP | 0.0265
141 | RRIRLRPPRLPRPRPRPPQGPRP | 1.27
142 | RRIRLRPPRLPRPRPRPPSAPRP | 0.654
143 | RRIRLRPPRLPRPRPRPPSDPRP | 0.432
144 | RRIRLRPPRLPRPRPRPPTDPRP | 0.127
145 | RRIRLRPPRLPRPRPRPPVCPRP | 0.124
146 | RRIRLRPPRLPRPRPRPPVIPRP | -0.0477
147 | RRIRLRPPRLPRPRPRPPVQPRP | 0.553
148 | RRIRLRPPRLPRPRPRPPWQPRP | 0.594
149 | RRIRLRPPRLPRPRPRPQALPRP | -0.042
150 | RRIRLRPPRLPRPRPRPQCDPRP | -0.118
